Reference: US5888811A, “Corticotropin-releasing hormone receptor” (DuPont Pharmaceuticals Company, priority 1997, dated 1999)
Where no end group is shown, it is not given here.

Legend:
[1] = molecular target: T1, CRHR2 γ (Homo sapiens, UniProt Q13324, DEL106-106); test: Whole cell adenylate cyclase assay (cAMP accumulation) in HEK293EBNA cells expressing CRHR2γ; format: cell-based; conditions: rank order only; summary statement
T1 sequence (Q13324 with tags, fused parts or gaps DEL106-106): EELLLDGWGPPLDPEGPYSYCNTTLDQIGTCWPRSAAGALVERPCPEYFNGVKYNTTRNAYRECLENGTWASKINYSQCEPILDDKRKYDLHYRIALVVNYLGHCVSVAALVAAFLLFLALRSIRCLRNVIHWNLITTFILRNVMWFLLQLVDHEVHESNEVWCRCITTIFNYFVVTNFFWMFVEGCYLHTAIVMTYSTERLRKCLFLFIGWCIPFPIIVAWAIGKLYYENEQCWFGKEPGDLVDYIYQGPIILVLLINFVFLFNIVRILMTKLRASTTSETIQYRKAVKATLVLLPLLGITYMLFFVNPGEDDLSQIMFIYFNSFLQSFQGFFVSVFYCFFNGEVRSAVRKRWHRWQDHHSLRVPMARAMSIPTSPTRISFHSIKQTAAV
Description: HEK293EBNA cells expressing the CRHR2 γ were incubated in DMEM with low serum (0.1% FBS) at 37° C., 5% CO2 for at least 2 hrs before the addition of isobytylmethoxyxanthine (IBMX) to the media at a final concentration of 0.1 mM. The cells were incubated with the IBMX for 30 minutes; test peptides or compounds were then added to the media and incubated therein for 25-30 min. The media was then aspirated from the cells and replaced with ice cold sodium acetate buffer containing 1 mM IBMX. The cells were then disrupted by a freeze-thaw, followed by sonication. Supernatants were assayed for cAMP levels with PerSeptive Diagnostics EIA Kit.

[2] = molecular target: T2, CRHR2 γ receptor (Homo sapiens, UniProt Q13324, DEL106-106); test: Displacement of 125I-tyr-0-sauvagine from membranes of HEK293EBNA cells expressing CRHR2γ; format: binding; conditions: 60-70 pM 125I-tyr-0-sauvagine; 23° C., 4 hours; read-out: approximate IC50 for displacement of 125I-tyr-0-sauvagine
T2 construct: the full length CRHR2 γ cDNA (original cDNA library clone) was subcloned; expressed in transfected cells; membranes
T2 sequence (Q13324 with tags, fused parts or gaps isoform Q13324-3 DEL92-92): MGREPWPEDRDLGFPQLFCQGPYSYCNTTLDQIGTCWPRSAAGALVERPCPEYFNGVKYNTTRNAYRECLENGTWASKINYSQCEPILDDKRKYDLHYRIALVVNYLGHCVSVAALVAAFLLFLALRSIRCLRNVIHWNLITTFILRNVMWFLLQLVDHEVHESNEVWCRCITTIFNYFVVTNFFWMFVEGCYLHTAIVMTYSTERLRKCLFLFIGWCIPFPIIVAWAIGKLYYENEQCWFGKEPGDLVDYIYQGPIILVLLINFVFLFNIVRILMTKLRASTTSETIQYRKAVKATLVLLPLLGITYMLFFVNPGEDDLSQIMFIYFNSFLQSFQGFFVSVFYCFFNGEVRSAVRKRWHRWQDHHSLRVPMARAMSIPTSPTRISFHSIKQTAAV
Description: Buffer consisted of 50 mM HEPES, 10 mM MgCI2, 2 mM EGTA, and 1 μg/ml each of aprotinin, leupeptin, and pepstatin at a final pH of 7.0. Bacitracin at 0.15 mM and ovalbumin at 0.1% were added to the buffer on the day of use. Assays were performed at 23° C. for 4 hours in a final volume of 200 μl in 96-well microtiter plates. Reactions were initiated by the addition of 10-20 μg of membrane homogenates and terminated by rapid filtration through presoaked (0.3% polyethyleneimine) glass fiber filters using an Inotech 96-well harvester. The filters were washed quickly 3×with ice-cold solution (PBS+0.01% TritonX-100, pH7.2), dried briefly, then placed into polystyrene tubes and counted on an Isomedic 10/880 γ counter (counting efficiency ~80%). Data was analyzed by nonlinear regression analysis using the computer program MacLigand. Determinations were made from at least 3 separate experiments.

| Substance | potency of stimulation of adenylate cyclase activity (rank order), measured by intracellular cAMP accumulation [1] | IC50 [2] |
| --- | --- | --- |
| r/h CRH: rat/human corticotropin-releasing hormone, agonist peptide | sauvagine>urotensin>rat/human CRH |  |
| urocortin: mammalian neuropeptide related to fish urotensin I and to corticotropin-releasing factor (DNPSLSIDLTFHLLRTLLELARTQSQRERAEQNRIIFDSV; ends and bridges not checked; UniProt P55089 83-122, looked up) |  | ~2 nM |
